Test results reported in patent US6645939 (MERCK, dated 2003).

Key:
[1] = molecular target: T1, α4β7 integrin on RPMI-8866 cells (human, UniProt P13612 34-1032; P26010 20-798); assay: radiolabeled VCAM-Ig (<500 pM) on RPMI-8866 cells, MnCl2, filter plates, scintillation counting
T1 construct: whole, on cells; Endogenous integrin on RPMI-8866 cells; also called LPAM-1
Method: (§1) Compounds of this invention were prepared in DMSO at 100× the desired final assay concentration. Final concentrations were selected from a range between 0.001 nM-100 μM. […] The plates were incubated at room temperature for 45 minutes on a plate shaker at 200 rpm, filtered on a vacuum box, and washed on the same apparatus by the addition of 100 μL of binding buffer containing 1mM MnCl_2. After insertion of the multiscreen plates into adapter plates (Packard, Meriden, Coon., cat# 6005178), 100 μL of Microscint-20 (Packard cat# 6013621) was added to each well. The plates were then sealed, placed on a shaker for 30 seconds, and counted on a Topcount microplate scintillation counter (Packard). Control wells containing DMSO alone were used to determine the level of VCAM-Ig binding corresponding to 0% inhibition. […] Percent inhibition was then calculated for each test well and the IC$50$ was determined from a ten point titration using a validated four parameter fit algorithm.

[2] = molecular target: T2, VLA-4 (α4β1) on Jurkat cells, clone E6-1 (UniProt P13612 34-1032; P05556 21-798, limits assumed); assay: radiolabeled VCAM-Ig (~100 pM) on Jurkat cells, 1 mM MnCl2, filter plates, scintillation counting
T2 construct: whole, on cells; Endogenous integrin on Jurkat cells; also called very late antigen-4; CD49d/CD29
Method: as §1, with “μM. Jurkat cells were centrifuged at 400×g for five minutes and resuspended in binding buffer (25 mM HEPES, 150 mM NaCl, 3 mM KCl, 2 mM glucose, 0.1% bovine serum albumin, pH 7.4). The cells were centrifuged again and resuspended in binding buffer supplemented with MnCl_2 at a final concentration of 1 mM.” for “μM.”, “30 minutes,” for “45 minutes on a plate shaker at 200 rpm,”, “1 mM” for “1mM”, “Conn.,” for “Coon.,”, “$IC50$” for “IC$50$”

T2 sequence (P13612 34-1032 limits assumed, chain 1 of 2): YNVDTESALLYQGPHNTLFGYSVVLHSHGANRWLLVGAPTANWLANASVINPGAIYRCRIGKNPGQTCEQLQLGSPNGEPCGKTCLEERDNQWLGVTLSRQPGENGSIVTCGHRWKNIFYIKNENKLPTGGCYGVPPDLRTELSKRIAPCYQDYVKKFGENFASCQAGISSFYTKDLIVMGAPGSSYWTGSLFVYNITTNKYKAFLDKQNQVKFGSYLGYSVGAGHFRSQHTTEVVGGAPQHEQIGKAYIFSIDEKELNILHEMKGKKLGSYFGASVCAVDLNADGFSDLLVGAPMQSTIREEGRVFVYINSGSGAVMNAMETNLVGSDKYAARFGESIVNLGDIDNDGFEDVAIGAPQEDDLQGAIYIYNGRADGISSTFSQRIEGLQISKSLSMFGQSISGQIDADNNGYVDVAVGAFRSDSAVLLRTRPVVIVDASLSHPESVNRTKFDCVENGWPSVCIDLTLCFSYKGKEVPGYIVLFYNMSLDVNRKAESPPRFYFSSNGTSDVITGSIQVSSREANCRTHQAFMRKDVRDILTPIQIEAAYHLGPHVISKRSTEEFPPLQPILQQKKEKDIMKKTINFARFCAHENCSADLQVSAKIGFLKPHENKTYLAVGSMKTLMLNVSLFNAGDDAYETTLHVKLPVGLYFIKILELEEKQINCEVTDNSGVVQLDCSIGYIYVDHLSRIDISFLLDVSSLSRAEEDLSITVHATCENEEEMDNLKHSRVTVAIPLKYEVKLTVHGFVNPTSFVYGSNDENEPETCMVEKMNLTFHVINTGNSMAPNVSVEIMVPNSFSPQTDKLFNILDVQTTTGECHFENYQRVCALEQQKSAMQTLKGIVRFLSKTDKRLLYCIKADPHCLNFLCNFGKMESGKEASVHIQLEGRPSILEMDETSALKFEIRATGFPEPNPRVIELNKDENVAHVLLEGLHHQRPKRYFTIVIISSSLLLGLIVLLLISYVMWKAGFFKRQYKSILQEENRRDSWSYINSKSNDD
T2 sequence (P05556 21-798 limits assumed, chain 2 of 2): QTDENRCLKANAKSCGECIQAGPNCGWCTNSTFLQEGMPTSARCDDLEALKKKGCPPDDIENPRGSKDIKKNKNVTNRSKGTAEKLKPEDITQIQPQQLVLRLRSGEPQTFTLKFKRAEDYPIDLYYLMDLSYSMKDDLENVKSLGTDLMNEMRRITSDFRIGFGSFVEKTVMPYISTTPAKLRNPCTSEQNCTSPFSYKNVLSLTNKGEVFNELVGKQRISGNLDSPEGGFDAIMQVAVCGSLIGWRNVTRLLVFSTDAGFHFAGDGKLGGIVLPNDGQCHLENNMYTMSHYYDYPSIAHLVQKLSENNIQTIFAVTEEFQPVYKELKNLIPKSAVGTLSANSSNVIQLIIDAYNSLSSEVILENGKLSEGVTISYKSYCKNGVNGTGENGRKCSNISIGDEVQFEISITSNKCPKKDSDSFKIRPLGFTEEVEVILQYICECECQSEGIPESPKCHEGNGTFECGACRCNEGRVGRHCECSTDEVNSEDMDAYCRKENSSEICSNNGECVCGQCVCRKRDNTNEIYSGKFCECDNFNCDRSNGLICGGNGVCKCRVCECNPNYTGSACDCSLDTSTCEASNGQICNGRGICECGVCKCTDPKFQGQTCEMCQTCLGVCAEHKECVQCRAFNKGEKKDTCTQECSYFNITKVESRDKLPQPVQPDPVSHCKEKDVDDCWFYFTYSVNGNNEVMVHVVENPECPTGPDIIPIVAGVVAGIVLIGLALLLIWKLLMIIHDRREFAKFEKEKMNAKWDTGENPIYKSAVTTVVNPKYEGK
T1 sequence (P13612 34-1032, chain 1 of 2): as the sequence (P13612 34-1032 limits assumed, chain 1 of 2) above
T1 sequence (P26010 20-798, chain 2 of 2): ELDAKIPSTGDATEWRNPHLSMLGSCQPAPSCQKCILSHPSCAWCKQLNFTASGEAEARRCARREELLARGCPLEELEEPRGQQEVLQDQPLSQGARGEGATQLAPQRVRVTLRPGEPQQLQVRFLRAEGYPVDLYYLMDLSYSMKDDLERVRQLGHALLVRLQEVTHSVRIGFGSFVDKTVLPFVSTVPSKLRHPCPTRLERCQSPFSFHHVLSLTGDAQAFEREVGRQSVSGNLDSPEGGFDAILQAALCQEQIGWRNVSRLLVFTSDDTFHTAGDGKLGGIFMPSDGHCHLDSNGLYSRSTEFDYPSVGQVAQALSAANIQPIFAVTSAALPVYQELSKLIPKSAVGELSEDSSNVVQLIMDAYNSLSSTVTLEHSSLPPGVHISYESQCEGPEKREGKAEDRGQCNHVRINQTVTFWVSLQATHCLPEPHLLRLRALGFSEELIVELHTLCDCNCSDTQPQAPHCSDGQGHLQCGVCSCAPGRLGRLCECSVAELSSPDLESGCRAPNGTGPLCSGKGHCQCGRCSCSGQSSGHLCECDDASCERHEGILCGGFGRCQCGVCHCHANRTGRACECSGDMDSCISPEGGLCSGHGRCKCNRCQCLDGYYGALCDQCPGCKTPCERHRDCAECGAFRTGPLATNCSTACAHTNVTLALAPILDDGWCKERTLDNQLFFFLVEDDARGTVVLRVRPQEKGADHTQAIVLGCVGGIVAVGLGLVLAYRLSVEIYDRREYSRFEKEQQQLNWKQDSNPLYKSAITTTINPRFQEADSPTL

B1: VCAM-Ig fusion protein (Fc fusion, not shown: small tags and cut ends)
chain: FKIETTPESRYLAQIGDSVSLTCSTTGCESPFFSWRTQIDSPLNGKVTNEGTTSTLTMNPVSFGNEHSYLCTATCESRKLEKGIQVEIYSFPKDPEIHLSGPLEAGKPITVKCSVADVYPFDRLEIDLLKGDHLMKSQEFLEDADRKSLETKSLEVTFTPVIEDIGKVLVCRAKLHIDEMDSVPTVRQAVKEL
modifications: labeled with 125I-Bolton Hunter reagent (sites not given)
Does B1 bind [1]?
Result: binds

Does B1 bind [2]?
Result: binds
